Substitutions are numbered along the chain they refer to.

For data set [1], the system named is common marmoset γc. Nature of the data set: BLI binding kinetics to common marmoset γc protein. Details: species or system common marmoset (Callithrix jacchus). As to the method:
Full-length humanized antibodies were evaluated by BLI to access their binding kinetics. The binding activities of full-length anti-γc antibody were investigated using γc proteins (extracellular domain) from human and common marmoset (either purchased or in-house generated). Briefly, anti-γc antibody (20 μg/mL) was immobilized on biosensors via interactions with anti-human IgG; serially diluted γc proteins (at a concentration of 158.7 nM, 79.4 Nm, 39.7n M and 0 nM respectively) were subsequently added following standard operation protocols of the Octet ReD96 system to plot out the association and dissociation curve. Irrelevant antibody (SM03, anti-human CD22 chimeric IgG1 antibody, SinoMab BioScience Limited) was used as the control reference. The KD is within the picomolar-single digit nanomolar range.

In data set [2] the test system is cynomolgus γc. The data set is described as follows: BLI binding kinetics to cynomolgus γc protein. On the set-up: species or system cynomolgus (Macaca fascicularis).
cynomolgus γc, sequence (as listed by the source): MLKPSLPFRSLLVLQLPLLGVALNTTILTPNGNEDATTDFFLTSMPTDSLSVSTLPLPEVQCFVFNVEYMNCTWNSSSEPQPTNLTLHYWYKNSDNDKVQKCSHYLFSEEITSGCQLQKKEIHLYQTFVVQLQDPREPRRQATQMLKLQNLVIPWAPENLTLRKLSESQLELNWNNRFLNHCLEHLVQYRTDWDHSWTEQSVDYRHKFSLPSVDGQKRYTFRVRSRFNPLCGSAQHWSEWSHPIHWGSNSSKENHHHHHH
For data set [3], the system named is IL-2 induced p-STAT3. The data set is described as follows: Suppression of p-STAT in PBMC, IL-2. It is filed as cell-based, human. As to conditions: antibody 10 μg/ml, compared to isotype control. The protocol: (§1) Given numbers refer to the percentage of inhibition compared to isotype control stimulated with respective γc cytokine. Antibody concentration is 10 μg/ml.

Data set [4] concerns IL-7 induced p-STAT5. The data set is described as follows: Suppression of p-STAT in PBMC, IL-7. It is filed as cell-based, human. As to conditions: antibody 10 μg/ml, compared to isotype control. The protocol: as §1
The subject of data set [5] is HaCaT cells. The data set is described as follows: ADCC assay on HaCaT cells with human PBMC. As to conditions: 33 nM (5 μg/ml), vs isotype antibody. It is filed as cell-based. As to the method: (§2) γc expressing human keratinocyte HaCaT cell line was utilized as the target cells in ADCC and CDC assays. To determine the ADCC activity, HaCaT cell was pre-binded with anti-γc antibodies before co-culture with human PBMC. To determine the CDC activity, HaCaT cell was pre-binded with anti-γc antibodies before incubation with low-endotoxin complement proteins extracted from guinea pig. ADCC was determined by percentage of PI+ HaCaT cells in flow cytometry analysis while CDC was measured by the WST-8 proliferative assay of HaCaT cells in a 96-well plate (FIG. 22A).

Data set [6] has as its system HaCaT cells. Nature of the data set: CDC assay on HaCaT cells with complement. It is filed as cell-based, human. The following applies: 33 nM (5 μg/ml), vs isotype antibody. As to the method: as §2
Data set [7] addresses T1, γc proteins from human (Homo sapiens, UniProt P31785).
T1 construct: extracellular domain of human γc protein (amino acids: 1-262); host or cells: Expi-CHO (e.g.)
T1 sequence (P31785 23-262): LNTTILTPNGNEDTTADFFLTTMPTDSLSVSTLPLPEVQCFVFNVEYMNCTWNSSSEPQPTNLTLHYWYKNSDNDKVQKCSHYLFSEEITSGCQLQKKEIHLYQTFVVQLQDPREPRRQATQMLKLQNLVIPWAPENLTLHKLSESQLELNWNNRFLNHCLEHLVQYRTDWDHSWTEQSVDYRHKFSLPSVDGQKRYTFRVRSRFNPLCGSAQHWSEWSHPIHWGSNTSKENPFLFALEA
Nature of the data set: ELISA binding of full-length antibodies to human γc. The following applies: humanized antibodies with back-mutation. The protocol:
Selected clones of full-length antibodies were evaluated by ELISA to access the binding specificity. The binding activities of full-length anti-γc antibody were investigated using γc proteins (extracellular domain) from human (SEQ ID NO: 205-206), cynomolgus (Sequence ID: XP_005593949.1, SEQ ID NO: 207-208) and chimpanzee (Sequence ID: XP_008971810.1, SEQ ID NO: 209-210) either purchased from Sino Biological or in-house generated.
Humanized antibodies with back-mutation (hSM-05A and hSM-05E) were tested in the following assays. Binding affinities were investigated in the ELISA assays.
In general terms: In an ELISA, binding on a coated surface is turned into a signal by an enzyme label.

Data set [8] relates to granzyme and IFNγ secretion. Nature of the data set: Secretion of granzymes and IFNγ from PBMC culture, ELISA. As to conditions: IL-2 or IL-15, 33 nM, humanized antibodies. The format is cell-based, human. The protocol: Activation of T and NK cells in the PBMC culture could be studied by granzyme and IFNγ secretion [Carlin et al., Blood., 2005; 106 (12): 3874-9; Grossman et al., Blood., 2004; 104 (9): 2840-8; Keppel et al., J Immunol., 2015; 194 (4): 1954-1962; Tamang et al., Cytokine., 2006; 36 (3-4): 148-59]. Similar results are obtained in-house that IL-2 and IL-15 but not IL-21 could trigger secretion of granzyme A and IFNγ in PBMC culture (FIG. 15A-B).
Antibodies or ritlecitinib were added into the PBMC culture to investigate their inhibitory effects in the presence of IL-2 or IL-15 treatment.
Releases of cytolytic agents from PBMC culture were further evaluated by ELISA assays.

The target in data set [9] is T2, human γc protein (Homo sapiens, UniProt P31785).
T2 construct: endogenous in cells; host or cells: Ramos B cells
T2 sequence (P31785 23-369): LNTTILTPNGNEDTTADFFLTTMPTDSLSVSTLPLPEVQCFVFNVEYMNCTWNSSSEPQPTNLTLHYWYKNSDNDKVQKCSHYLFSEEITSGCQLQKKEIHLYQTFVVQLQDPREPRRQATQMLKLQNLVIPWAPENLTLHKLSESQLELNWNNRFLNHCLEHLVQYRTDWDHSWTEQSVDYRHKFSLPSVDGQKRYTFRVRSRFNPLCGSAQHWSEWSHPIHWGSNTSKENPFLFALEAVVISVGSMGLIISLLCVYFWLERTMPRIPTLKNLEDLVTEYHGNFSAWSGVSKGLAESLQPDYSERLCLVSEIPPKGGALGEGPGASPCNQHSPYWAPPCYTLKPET
The data set is described as follows: Competition assay on Ramos B cells, flow cytometry. It is filed as binding. As to conditions: unconjugated hSM-05A then FITC-conjugated hSM-05E, 33 nM. As to the method: Purified anti-γc antibodies were conjugated to FITC fluorescent dye and used for the competition assay. In brief, human γc expressing Ramos B cells were first labelled with unconjugated hSM-05A for an hour before further incubation with FITC-conjugated hSM-05E.
(In general: In flow cytometry, cells or beads pass a laser one at a time.)

Data set [10] relates to T cells. Nature of the data set: Mixed lymphocyte reaction (MLR) in human PBMC. It is filed as cell-based. The following applies: CFSE, flow cytometry. The protocol: To provide hints at effects of humanized antibodies to target GvHD, MLR assay was developed in our PBMC system (FIG. 29A). In brief, total T cells were isolated from PBMC of donor 1 while T cells were depleted from PBMC of donor 2. T cells from donor 1 were activated with a cocktail of anti-CD3 and anti-CD28 antibodies in the presence of IL-2. Simultaneously, T cells were incubated with humanized antibodies or ritlecitinib together with inducing agents. After 3 days, T cells were labelled with CFSE before co-culture with T-cell depleted culture from donor 2 for 6 days. Proliferating T cells were identified as CFSE low or CSFE negative population in flow cytometry.

common marmoset γc, sequence (as listed by the source): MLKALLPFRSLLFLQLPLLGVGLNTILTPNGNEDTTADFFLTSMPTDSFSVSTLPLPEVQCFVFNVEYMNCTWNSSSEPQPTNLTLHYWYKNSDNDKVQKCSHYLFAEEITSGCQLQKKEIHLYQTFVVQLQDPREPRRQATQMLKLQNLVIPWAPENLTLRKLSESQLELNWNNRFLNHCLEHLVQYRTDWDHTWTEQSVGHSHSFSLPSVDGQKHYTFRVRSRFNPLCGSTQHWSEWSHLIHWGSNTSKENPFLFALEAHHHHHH

B1: hSM-05A: full-length humanized anti-γc antibody derived from SM-05A by framework patching (antibody, V domains shown)
VH: QVQLVQSGAEVLKPGASVKVSCKASGYTFTEYTMHWVKQARGQRLEWIGGIDPYNGGATYNQRFKGKATLTTDTSTSTAYMELRNLRSDDTAVYYCARRRLYYGNALDYWGQGTLVTVSS
VL: DIVMTQSPLSLPVTPGEQASISCRSSQSLVHSNGNTYLHWYLQKPGQSPQLLIYKVSSRFSGVPDRFSGSGSGTDFTLKISRVEAEDVGVYFCSQTTHVPFTFGSGTKLEIKR
Take B1: in [1], the “Ka” value is 300000 M⁻¹ s⁻¹ and the “Kdis” value is 0.00121 s⁻¹. Besides, in data set [2], the “Ka” value worked out at 22500 M⁻¹ s⁻¹ and the “Kdis” value is 0.00683 s⁻¹. Also, in [3], the “IL-2 induced p-STAT3, percentage of inhibition” value is 89.94%. In [4], the “IL-7 induced p-STAT5, percentage of inhibition” value is on record as 94.17%. Besides, the ADCC activity result in data set [5] is on record as “could not induce any ADCC nor CDC activities”. Further, the CDC activity entry in data set [6] is recorded as “could not induce any ADCC nor CDC activities”. Moreover, the “ELISA binding to human γc” value in data set [7] was “retained the binding affinity and specificity”. Besides, the “inhibition of IFNγ secretion” value in data set [8] is given as “comparable inhibition to IFNγ secretion to ritlecitinib”. Besides, the “epitope competition between hSM-05A and hSM-05E” value in data set [9] is “could compete on a similar epitope on the human γc protein”. In addition, in data set [10], the “inhibition of MLR induced expansion of cytotoxic T cells” value is recorded as “could significantly inhibit” and the “suppression of MLR induced expansion of T helper cells” value was “the suppression was milder to T helper cells”.

B2: hSM-05E: full-length humanized anti-γc antibody derived from SM-05E by framework patching (antibody, V domains shown)
VH: B1 VH with Y54N, N55T, A58V, R63K, L101R, N105Y
VL: B1 VL with L29I, H39E, S58N, T96S, T102M
On to B2, for which, in data set [1], the “Ka” value came out at 333000 M⁻¹ s⁻¹ and the “Kdis” value amounted to 0.00175 s⁻¹. For the same molecule, in data set [2], the “Ka” value is 22500 M⁻¹ s⁻¹ and the “Kdis” value came to 0.00683 s⁻¹. Also, the “IL-2 induced p-STAT3, percentage of inhibition” value in data set [3] is given as 58.45%. For the same molecule, in data set [4], the “IL-7 induced p-STAT5, percentage of inhibition” value is on record as 66.02%. The ADCC activity result in [5] is given as “could not induce any ADCC nor CDC activities”. Besides, the CDC activity result in [6] is “could not induce any ADCC nor CDC activities”. Also, the “ELISA binding to human γc” value in data set [7] was “retained the binding affinity and specificity”. In data set [8], the “inhibition of IFNγ secretion” value is listed as “only offered weak suppression to two agents” and the “suppression of granzyme B secretion” value is on record as “only offered weak suppression to two agents”. Further, the “epitope competition between hSM-05A and hSM-05E” value in data set [9] is reported as “could compete on a similar epitope on the human γc protein”. Moreover, in data set [10], the “inhibition of MLR induced expansion of cytotoxic T cells” value is on record as “could significantly inhibit” and the “suppression of MLR induced expansion of T helper cells” value is recorded as “the suppression was milder to T helper cells”.

(Values after US20260209365A1, “ANTI-COMMON GAMMA CHAIN PROTEINS AND COMPOSITIONS OF MATTER” (SINOMAB BIOSCIENCE LIMITED, priority 2023, published 2026).)
